Measurements published in patent US20220340635A1, “FUSION PROTEIN FOR TREATMENT OF METABOLIC DISEASE” (ZHEJIANG DOER BIOLOGICS CORPORATION, priority 2019, published 2022).

Target: β-klotho (KLB)
Experiment: cell-based or functional assay

- FGF21 activity (EC50, nM): 0.12 nM
Substance: Natural FGF21 (from UniProt Q9NSA1 29-209) (ligand)
